Legend:
Saccharomyces cerevisiae [1] = assay: protein stability index of tFT-peptide fusion in wild type (PSI (0-1 scale)); higher = more stable (slower turnover); conditions: genetic background: wild type
Saccharomyces cerevisiae [2] = assay: protein stability index of tFT-peptide fusion in deletion strain of DOA10 (PSI (0-1 scale)); higher = more stable (slower turnover)
Description: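 MPS profiling in S. cerevisiae of two library types built from selected 12-aa C-degron peptides (IN1, IN2, LN1, LN3, VN2, R1-R5, W1-W3, Atg1 and Rpa12 C-termini): saturation mutagenesis libraries and C-terminal +1 capping libraries (13 aa). Each peptide is fused to the C-terminus of a sfGFP-mCherry timer, after a GGGS linker. Cells are FACS-sorted into 8 mCherry/sfGFP bins and sequenced. PSI runs from 0 (unstable) to 1 (stable), measured once in wild type and in the das1Δ or doa10Δ background.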
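Wherever protein stability index of tFT-peptide fusion in deletion strain of DOA10 is given: PSI per variant is the weighted mean of its sequencing read distribution over the sorted stability bins, counting only variants with over 10 reads summed across bins.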
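Wherever protein stability index of tFT-peptide fusion in wild type is given: PSI derived as read-weighted mean over the 8 sorting bins, only variants exceeding 10 total reads kept, mCherry placed adjacent to the peptide and sfGFP distal.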

Sequence | protein stability index (Saccharomyces cerevisiae [1]) | protein stability index (Saccharomyces cerevisiae [2])
GLYMWSVGCWFR | 0.278 | 0.601
RSLRVLLPLYFRP | 0.291 | 0.638
GLYMCSVGCMFR | 0.524 | 0.636
AITLPACPLLLR | 0.291 | 0.657
AITLPMCHLLLR | 0.158 | 0.663
AQTLPMCPLLLR | 0.394 | 0.686
RVTRLDAIPFRI | 0.69 | 0.724
RLVSLPILLFFR | 0.0755 | 0.614
RVTRLDAIYFRIK | 0.615 | 0.694
RVSRLDAIYFRI | 0.445 | 0.671
GLYMCSEGCWFR | 0.619 | 0.706
CLVSLFILLFFR | 0.228 | 0.433
RSLRILLPLYFR | 0.253 | 0.655
AITLPPCPLLLR | 0.232 | 0.673
AITYPMCPLLLR | 0.287 | 0.655
RSLRVLLPLIFR | 0.375 | 0.671
DITLPMCPLLLR | 0.39 | 0.655
RSLRVLEPLYFR | 0.412 | 0.69
CLVSLPILLFDR | 0.554 | 0.65
CLVSLPILAFFR | 0.151 | 0.613
GLYMCSVGCWIR | 0.179 | 0.402
CLVSLPILLLFR | 0.0579 | 0.579
RVERLDAIYFRI | 0.491 | 0.682
GLYMCFVGCWFR | 0.233 | 0.402

Sequence | protein stability index (Saccharomyces cerevisiae [1]) | protein stability index (Saccharomyces cerevisiae [2])
AITLPMCPLLLRV | 0.11 | 0.334
AITLPMCPLLLRE | 0.488 | 0.634
WITLPMCPLLLR | 0.31 | 0.606
GLYMDSVGCWFR | 0.521 | 0.727
CCVSLPILLFFR | 0.0702 | 0.606
GLYMCSRGCWFR | 0.436 | 0.677
GLYMCSVGCWWR | 0.355 | 0.634
GLYMMSVGCWFR | 0.26 | 0.604
AITLPMDPLLLR | 0.627 | 0.681
RVTRLDMIYFRI | 0.236 | 0.658
RSLRVDLPLYFR | 0.203 | 0.69
AITLPMRPLLLR | 0.176 | 0.637
RVTFLDAIYFRI | 0.438 | 0.621
CLVHLPILLFFR | 0.0596 | 0.56
GLNMCSVGCWFR | 0.264 | 0.673
AITLPMCPLRLR | 0.453 | 0.666
RVTRLDAIYFLI | 0.0749 | 0.119
TLVSLPILLFFR | 0.0732 | 0.613
RVTRLDAIYNRI | 0.697 | 0.738
AITLPMCPLLLRR | 0.34 | 0.673
GLYMCSVGCWFRT | 0.227 | 0.554
RVTRMDAIYFRI | 0.365 | 0.683
CLVSMPILLFFR | 0.0734 | 0.601

From the supplement of paper PMC10724198
